The text below walks through data of article PMC3650583, “Dissection of Pilus Tip Assembly by the FimD Usher Monomer” (Journal of Molecular Biology, 2013).

Positions count from the first letter of the chain named. Names and notes keep the numbering of the source.

In data set [1] the target is FimD:FimC:FimH complex (Escherichia coli (uropathogenic)) (UniProt P30130). In words: AUC; sedimentation velocity of purified FimD:FimC:FimH at the higher concentrations (> 1 μM, up to 4.3 μM); 20 °C, 42,000 rpm, absorbance optics; 50 mM Tris pH 8.0, 150 mM NaCl, 1 mM EDTA, 0.05% DDM; c(s) by SedFit; Kd of usher dimerisation (dimer to monomers) estimated by integrating the monomer and dimer peaks at 4.3 μM.

Data set [2] deals with FimF (Escherichia coli (uropathogenic)) (UniProt P08189). Description: donor strand exchange (DSE) assay, SDS-PAGE of the SDS-stable subunit:subunit product; 20 °C; 500 nM usher complex (acceptor subunit last in FimD:FimC:...) and 5 μM chaperone:subunit complex (donor), one subunit labelled with Alexa 647; quenched with HCl (quench flow for the fast reactions); fitted to Eq. (1) with KinTek Explorer.

Data set [3] concerns the target FimH (Escherichia coli (uropathogenic)) (UniProt P08191). The data set is described as above.
The target in data set [4] is FimG (Escherichia coli (uropathogenic)) (UniProt P08190). The description is as above.
Data set [5] deals with the molecule itself. In words: AUC; sedimentation velocity of FimD alone at 5 μM and 2 μM; 20 °C, 42,000 rpm; 50 mM Tris pH 8.0, 150 mM NaCl, 1 mM EDTA, 0.05% DDM; monomer to dimer.
For data set [6], the target named is T1, FimF (Escherichia coli (uropathogenic), UniProt P08189 21-176).
T1 construct: also called unlabelled FimF; FimC:FimF (as chaperone complex)
T1 sequence: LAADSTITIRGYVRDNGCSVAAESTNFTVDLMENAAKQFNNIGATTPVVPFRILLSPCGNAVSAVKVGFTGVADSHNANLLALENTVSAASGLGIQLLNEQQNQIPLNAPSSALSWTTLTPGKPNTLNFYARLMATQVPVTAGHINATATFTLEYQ
Description: donor strand exchange (DSE) assay, SDS-PAGE of the SDS-stable subunit:subunit product; 20 °C; FimD:FimC:FimH:FimG and FimC:FimF both unlabelled; silver staining and densitometry of the FimH:FimG:FimF product. Particulars: both partners purified.

Data set [7] deals with the molecule itself. Description: donor strand exchange (DSE) assay, SDS-PAGE of the SDS-stable subunit:subunit product; spontaneous (non-usher mediated) formation of FimG polymers from FimC:FimG during the slow reactions.
Data set [8] concerns the target FimF^Q99C[A647] (Escherichia coli (uropathogenic)). In words: donor strand exchange (DSE) assay, SDS-PAGE of the SDS-stable subunit:subunit product; 20 °C; 500 nM usher complex (acceptor subunit last in FimD:FimC:...) and 5 μM chaperone:subunit complex (donor), one subunit labelled with Alexa 647; quenched with HCl (quench flow for the fast reactions); fitted to Eq. (1) with KinTek Explorer.

For data set [9], the target named is T1, FimF. The data set is described as above. The following applies: both partners purified.

With “FimD:FimC:FimH complex (from UniProt P30130;P31697;P08191)”, in data set [1], the Kd was 20 µM. As to FimF^Q99C[A647] (natural protein), the kDSE (rate of donor strand exchange, 20 °C) in data set [2] came to 0.00598 s⁻¹; in data set [3] it was 0.972 s⁻¹; in data set [4], 0.0527 s⁻¹.

B1: FimD usher (natural protein)
chain: DLYFNPRFLADDPQAVADLSRFENGQELPPGTYRVDIYLNNGYMATRDVTFNTGDSEQGIVPCLTRAQLASMGLNTASVAGMNLLADDACVPLTTMVQDATAHLDVGQQRLNLTIPQAFMSNRARGYIPPELWDPGINAGLLNYNFSGNSVQNRIGGNSHYAYLNLQSGLNIGAWRLRDNTTWSYNSSDRSSGSKNKWQHINTWLERDIIPLRSRLTLGDGYTQGDIFDGINFRGAQLASDDNMLPDSQRGFAPVIHGIARGTAQVTIKQNGYDIYNSTVPPGPFTINDIYAAGNSGDLQVTIKEADGSTQIFTVPYSSVPLLQREGHTRYSITAGEYRSGNAQQEKTRFFQSTLLHGLPAGWTIYGGTQLADRYRAFNFGIGKNMGALGALSVDMTQANSTLPDDSQHDGQSVRFLYNKSLNESGTNIQLVGYRYSTSGYFNFADTTYSRMNGYNIETQDGVIQVKPKFTDYYNLAYNKRGKLQLTVTQQLGRTSTLYLSGSHQTYWGTSNVDEQFQAGLNTAFEDINWTLSYSLTKNAWQKGRDQMLALNVNIPFSHWLRSDSKSQWRHASASYSMSHDLNGRMTNLAGVYGTLLEDNNLSYSVQTGYAGGGDGNSGSTGYATLNYRGGYGNANIGYSHSDDIKQLYYGVSGGVLAHANGVTLGQPLNDTVVLVKAPGAKDAKVENQTGVRTDWRGYAVLPYATEYRENRVALDTNTLADNVDLDNAVANVVPTRGAIVRAEFKARVGIKLLMTLTHNNKPLPFGAMVTSESSQSSGIVADNGQVYLSGMPLAGKVQVKWGEEENAHCVANYQLPPESQQQLLTQLSAECR
notes: also called apo FimD; the usher; source: in 0.05% DDM
Consider B1, for which the “stoichiometry N” value in data set [5] was 2.

B2: FimG (natural protein)
chain: ADVTITVNGKVVAKPCTVSTTNATVDLGDLYSFSLMSAGAASAWHDVALELTNCPVGTSRVTASFSGAADSTGYYKNQGTAQNIQLELQDDSGNTLNTGATKTVQVDDSSQSAHFPLQVRALTVNGGATQGTIQAVISITYTYS
notes: also called unlabelled FimG; FimC:FimG (as chaperone complex)
As for B2, the binding result (in the data set with FimF [6]; in data set [7]) was “binds” in each case. Also, the kDSE (rate of donor strand exchange, 20 °C) in data set [8] came to 0.00543 s⁻¹.

B3: FimG^S92C[A647] (natural protein)
chain: B2 chain with S92C
modifications: fluorescent Alexa 647 label at position 92 (on S92C)
B3: the binding result with FimF [9] was “binds”.

The Kd is the free concentration of one partner at which half of the binding sites on the other are occupied at equilibrium, for simple one-to-one binding. For orientation: stoichiometry N means a count of units in the complex or per binding partner.
